Test results: patent US20230416362A1 (INDUSTRIAL TECHNOLOGY RESEARCH INSTITUTE, published 2023)
Values belong to the binder of their own block, whether it stands above or below them.

Legend:
[1] = molecular target: T1, mTIGIT (ELISA of Table 7) (mouse, UniProt P86176 29-145, limits assumed); test: ELISA binding
T1 construct: also called mouse TIGIT
T1 sequence (looked up): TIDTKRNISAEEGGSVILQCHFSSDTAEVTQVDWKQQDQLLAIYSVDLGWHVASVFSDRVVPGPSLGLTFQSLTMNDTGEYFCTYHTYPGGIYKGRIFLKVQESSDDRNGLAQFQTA

[2] = molecular target: T2, hTIGIT (ELISA of Table 7) (human, UniProt Q495A1 22-141, limits assumed); test: ELISA binding
T2 construct: whole entry named; also called human TIGIT
T2 chain: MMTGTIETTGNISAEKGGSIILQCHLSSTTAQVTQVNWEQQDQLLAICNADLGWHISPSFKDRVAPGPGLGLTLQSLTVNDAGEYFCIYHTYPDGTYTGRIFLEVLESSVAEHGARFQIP

[3] = molecular target: T1, mTIGIT (ELISA of Table 7); test: mTIGIT/mCD155 competition ELISA; competitor mCD155
[4] = molecular target: T3, human TIGIT IgV domain G74A (human, UniProt Q495A1 22-141, limits assumed); test: ELISA on TIGIT IgV point mutants
T3 construct: Made in Expi293F cells, purified on Strep-Tactin XT; Limits of the IgV domain not readable, whole entry named; also called G74 single alanine substitution mutant
T3 chain: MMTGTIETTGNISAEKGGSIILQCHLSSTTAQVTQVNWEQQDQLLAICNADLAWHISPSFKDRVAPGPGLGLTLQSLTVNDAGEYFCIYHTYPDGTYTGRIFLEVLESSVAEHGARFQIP
Description: (§1) To further identify the amino acid residues of TIGIT that interact with the recombinant 7D4 mIgG2a antibody, single alanine substitution mutants were generated in the human TIGIT IgV domain by site-directed mutagenesis using standard molecular techniques. ELISA binding assays were then performed to assess 7D4 binding strength.
(§2) To identify the amino acid residues of TIGIT that interact with the humanized 7D4 variant, 1A11 (in human IgG1-DLE isotype), ELISA binding assays with the single alanine substitution mutants were performed to assess 1A11 binding strength. […] Similar to the parental mouse 7D4 antibody, Q56 and Y106 single alanine substitution mutants completely abolished the binding of 1A11.

[5] = molecular target: T4, human TIGIT IgV domain Y106A (human, UniProt Q495A1 22-141, limits assumed); test: ELISA on TIGIT IgV point mutants
T4 construct: Made in Expi293F cells, purified on Strep-Tactin XT; Limits of the IgV domain not readable, whole entry named; also called Y106 single alanine substitution mutant
T4 chain: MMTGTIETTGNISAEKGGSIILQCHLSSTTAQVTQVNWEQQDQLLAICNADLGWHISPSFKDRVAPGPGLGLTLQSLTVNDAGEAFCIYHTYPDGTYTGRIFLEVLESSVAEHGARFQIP
Description: as §1, §2

[6] = molecular target: T5, human TIGIT IgV domain Y110A (human, UniProt Q495A1 22-141, limits assumed); test: ELISA on TIGIT IgV point mutants
T5 construct: Made in Expi293F cells, purified on Strep-Tactin XT; Limits of the IgV domain not readable, whole entry named; also called Y110 single alanine substitution mutant
T5 chain: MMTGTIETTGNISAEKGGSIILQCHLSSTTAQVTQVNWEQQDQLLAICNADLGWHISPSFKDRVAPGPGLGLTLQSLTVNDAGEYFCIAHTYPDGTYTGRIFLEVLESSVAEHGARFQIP
Description: as §1, §2

[7] = molecular target: T6, human TIGIT IgV domain H111 single alanine substitution mutant (human, UniProt Q495A1 22-141, limits assumed); test: ELISA on TIGIT IgV point mutants
T6 construct: Printed as "H111" in the list of mutants; the text calls it a single alanine substitution mutant; Limits of the IgV domain not readable, whole entry named; also called H111A
T6 chain: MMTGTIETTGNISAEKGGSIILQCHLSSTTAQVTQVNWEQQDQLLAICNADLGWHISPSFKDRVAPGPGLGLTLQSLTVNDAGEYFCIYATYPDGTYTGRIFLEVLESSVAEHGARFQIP
Description: as §1, §2

[8] = molecular target: T7, human TIGIT IgV domain Q56A (human, UniProt Q495A1 22-141, limits assumed); test: ELISA on TIGIT IgV point mutants
T7 construct: Made in Expi293F cells, purified on Strep-Tactin XT; Limits of the IgV domain not readable, whole entry named; also called Q56 single alanine substitution mutant
T7 chain: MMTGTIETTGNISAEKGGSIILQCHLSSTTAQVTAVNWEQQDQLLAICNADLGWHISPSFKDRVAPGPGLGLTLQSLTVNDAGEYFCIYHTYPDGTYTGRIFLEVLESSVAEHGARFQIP
Description: as §1, §2

[9] = molecular target: T8, TIGIT-biotin (TIGIT:CD155 Homogeneous Assay Kit, #72029) (human, UniProt Q495A1 22-141, limits assumed, biotin (site not stated)); test: AlphaLISA competition: TIGIT-biotin with antibody, then histidine-tagged CD155 as competitor
T8 construct: Kit reagent; also called human TIGIT
T8 chain: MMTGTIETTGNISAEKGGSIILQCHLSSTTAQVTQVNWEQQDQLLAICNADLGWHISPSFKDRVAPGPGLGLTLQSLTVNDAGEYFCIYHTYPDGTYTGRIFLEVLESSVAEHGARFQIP
Description: To evaluate inhibition of binding of TIGIT to CD155 by anti-TIGIT antibodies, AlphaLISA assays were performed using a TIGIT:CD155 Homogeneous Assay Kit (PBS Biosciences, #72029). Aliquots (6 μl) of solution containing TIGIT-biotin (final concentration 0.2 ng/μl) and 4-fold serial dilution of the test antibodies (final volume 2 μl) were added into a 384-well plate. The plates were covered with a lid and incubated at room temperature for 30 min. Then, 2 μl of histidine-tagged CD155 were added (final concentration 0.05 ng/μl) into each well and incubated at room temperature for 60 min. Finally, aliquots (5 μl) of streptavidin-conjugated donor beads (final concentration 10 μg/ml) and 5 μl of anti-His tag acceptor beads (final concentration 20 μg/ml) were added and the plate was incubated at room temperature for 30 min in the dark. AlphaLISA signals were measured on an EnSpire Alpha 2390 (Perkin-Elmer Life Sciences). 15A6 (U.S. Pat. No. 10,189,902) and MBSA43 (Thermo Fisher Scientific, #16-9500-82) were used as reference antibodies.
These antibodies were selected for further functional studies.

[10] = molecular target: T9, human TIGIT expressed on cells (TIGIT/Jurkat cells; MJ[G11] cells; PBMC T cells) (human, UniProt Q495A1 22-244); test: flow cytometry on TIGIT/Jurkat cells
T9 construct: The cell line is named under assay; also called human TIGIT-expressing Jurkat cells
T9 sequence: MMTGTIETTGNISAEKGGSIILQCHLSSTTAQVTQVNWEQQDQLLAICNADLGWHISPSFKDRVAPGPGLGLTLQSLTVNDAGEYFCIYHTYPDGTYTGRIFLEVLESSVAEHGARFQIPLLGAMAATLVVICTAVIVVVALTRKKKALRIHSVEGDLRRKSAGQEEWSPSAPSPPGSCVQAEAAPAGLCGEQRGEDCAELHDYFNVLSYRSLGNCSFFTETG
Description: Sequential dilutions of Protein A column-purified 7D4, 2C9, and 3A9 antibodies were separately incubated with 5×10⁵ of human TIGIT-expressing Jurkat cells (TIGIT/Jurkat) in 50 μl of FACS buffer (0.2% BSA in Dulbecco's phosphate-buffered saline (DPBS) containing 0.09% sodium azide) on ice for 1 hour. After washing, the cells were stained with anti-mouse IgG conjugated with PE dyes and antibody binding strength was analyzed by flow cytometry.

B1: 1G3 mIgG2a-DLE (antibody, V domains shown)
VH: DIQLVQSGGGLVKPGGSLRLSCAASGYTFTNYWIGWVRQTPGKGLEWVGDIYPGSSFTNSNEKFKGRFTISADKSKNTAYLQMNSLRAEDTAVYYCARDMVGYWYFDVWGQGTLVTVSS
VL: DIVLTQSPATLSASLGERATLSCSASSSVSYIHWYQQKPGQAPKLLIYTTSNLASGVPSRFSGSGSGTDFTLTISSLEAEDFATYYCHQWSRYPTFGGGTKLEIK
notes: Mouse IgG2a isotype with DLE (S239D/A330L/I332E) mutations at the Fc region
EC50 [1]: 3.6 nM | EC50 [2]: 9.4 nM | IC50 [3]: 61.7 nM

B2: 1A11 hIgG1-DLE (antibody, V domains shown)
VH: EVQLVQSGGGLVKPGGSLRLSCAASGYTFTNYWIGWVRQTPGKGLEWVGDIYPGSSFTNSNEKFKGRFTISADKSKNTAYLQMNSLRAEDTAVYYCARLGRGYWYFDVWGQGTLVTVSS
VL: DIVLTQSPATLSASLGERATLSCSASSSVSYIHWYQQKPGQAPKLLIYTTSNLASGVPSRFSGSGSGTDFTLTISSLEAEDFATYYCQLFRSGSAFGGGTKLEIKR
notes: Human IgG1 with DLE mutations at the Fc region, expressed in CHO-S cells; also called humanized 7D4 variant 1A11 (in human IgG1-DLE isotype)
reduction in binding against the wild type [4]: > 40% | binding result [5]: no binding | reduction in binding against the wild type [6]: > 40% | reduction in binding against the wild type [7]: > 40% | binding result [8]: no binding

B7: 2C9 (antibody, V domains shown)
VH: DIQLKQSGAELVRPGASVKLSCKASGYTFTDSYINWVKQRPGQGLEWIARFYPGSGNTYYNEKFKGKATLTAEKSSSTAYMQLSSLTSEDSAVYFCAREAWLLFYGMDYWGQGTTVTVSS
VL: DIVLTQSPAIMSASPGEKVTISCSANSSVSYMYWYQQKPGSSPKPWIYRTSNLASGVPARFSGSGSGTSYSLTISSMEAEDAATYYCQQYHSYPLTFGAGTKLELK
notes: Mouse monoclonal antibody from hybridoma clone 2C9, Protein A purified; also called anti-TIGIT monoclonal antibody 2C9
IC50 [9]: 0.4 nM | Kd [10]: 2 nM

The remaining lines, values ahead:

EC50 [1]: 0.7 nM | EC50 [2]: 0.9 nM | IC50 [3]: 12.4 nM
B3: 3H2 mIgG2a-DLE (antibody, V domains shown)
VH: DIQLVQSGGGLVKPGGSLRLSCAASGYTFTNYWIGWVRQTPGKGLEWVGDIYPGSSFTNSNEKFKGRFTISADKSKNTAYLQMNSLRAEDTAVYYCARIRLGYWYFDVWGQGTLVTVSS
VL: DIVLTQSPATLSASLGERATLSCSASSSVSYIHWYQQKPGQAPKLLIYTTSNLASGVPSRFSGSGSGTDFTLTISSLEAEDFATYYCHQWSRYPTFGGGTKLEIK
notes: as for B1

EC50 [1]: 1.1 nM | EC50 [2]: 464 nM | IC50 [3]: 33.8 nM
B4: 2F1 mIgG2a-DLE (antibody, V domains shown)
VH: DIQLVQSGGGLVKPGGSLRLSCAASGYTFTNYWIGWVRQTPGKGLEWVGDIYPGSSFTNSNEKFKGRFTISADKSKNTAYLQMNSLRAEDTAVYYCARVIVGYWYFDVWGQGTLVTVSS
VL: DIVLTQSPATLSASLGERATLSCSASSSVSYIHWYQQKPGQAPKLLIYTTSNLASGVPSRFSGSGSGTDFTLTISSLEAEDFATYYCHQWSRYPTFGGGTKLEIK
notes: as for B1

EC50 [1]: 217 nM | EC50 [2]: 0.3 nM
B5: hz7D4 mIgG2a (antibody, V domains shown)
VH: EVQLVQSGGGLVKPGGSLRLSCAASGYTFTNYWIGWVRQTPGKGLEWVGDIYPGSSFTNSNEKFKGRFTISADKSKNTAYLQMNSLRAEDTAVYYCARLGRGYWYFDVWGQGTLVTVSS
VL: DIVLTQSPATLSASLGERATLSCSASSSVSYIHWYQQKPGQAPKLLIYTTSNLASGVPSRFSGSGSGTDFTLTISSLEAEDFATYYCHQWSRYPTFGGGTKLEIK

IC50 [9]: 0.55 nM | Kd [10]: 1.86 nM
B6: 3A9 (antibody, V domains shown)
VH: QVQLQQPGAELVRPGSSVKLSCKASGYTFTSYWMHWVKQRPIQGLEWIGNIDPSDSATHYNQKFKDKATLTVDKSSSTAYMHLSSLTSEDSAVYYCARTGIDYGSSYFDYWGQGTILTVSS
VL: DIVLTQSPASLAVSLGQRATISCRASQSVSTSSYSYIHWYQQKPGQPPKLLIKYASNLESGVPARFSGSGSGTDFTLNIHPVEEEDTATYYCQHNWEIPRTFGGGTKLEIK
notes: Mouse monoclonal antibody from hybridoma clone 3A9, Protein A purified; also called anti-TIGIT monoclonal antibody 3A9

reduction in binding against the wild type [4]: 50% | binding result [5]: no binding | reduction in binding against the wild type [6]: > 50% | reduction in binding against the wild type [7]: > 50% | binding result [8]: no binding
B8: recombinant 7D4 mIgG2a antibody (antibody, V domains shown)
VH: QVQLKHSGAELVRPGTSVKMSCKASGYTFTNYWIGWAKQRPGHGLEWIGDIYPGSSFTNSNEKFKGKATLTADKSSSTAYMQFSSLTSEDSAIYYCAKLGRGYWYFDVWGTGTSVTVSA
VL: DIVLTQSPAIMSASLGEEITLTCSASSSVSYIHWYQQKSGTSPKLLIYTTSNLASGVPSRFSGSGSGTFYSLTISSVEAEDAADYYCHQWSRYPTFGGGTKLEIK
notes: Recombinant form with mouse IgG2a constant region (vector pFUSEss-CHIg-mG2a); also called recombinant 7D4 antibody (in mouse IgG2a isotype)
